What was measured:
[1] = target: the molecule itself; test: SEC; MASP-3 SP and ecotin preincubated 20 min at room temperature (equimolar, 225 pmol; also various molar ratios), TSK G3000 SW column in 145 mM NaCl, 50 mM triethanolamine-HCl, pH 7.4, 1 ml/min; peaks analysed by N-terminal sequencing and SDS-PAGE
[2] = target: T1, MASP-3 serine protease (SP) domain (human, UniProt P48740-2 450-728, three N-linked oligosaccharide chains comprising two N-acetylglucosamine and five mannose residues); test: cell-based or functional assay
T1 sequence (looked up): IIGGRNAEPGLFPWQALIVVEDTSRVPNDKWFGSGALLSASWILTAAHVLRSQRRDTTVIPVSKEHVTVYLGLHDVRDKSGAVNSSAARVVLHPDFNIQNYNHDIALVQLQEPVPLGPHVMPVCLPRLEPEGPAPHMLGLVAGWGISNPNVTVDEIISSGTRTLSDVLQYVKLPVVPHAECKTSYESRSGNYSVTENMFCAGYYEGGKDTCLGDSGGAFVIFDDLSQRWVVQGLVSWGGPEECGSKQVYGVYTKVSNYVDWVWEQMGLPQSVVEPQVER

[3] = target: T2, MASP-2 CCP1/2-ap-SP fragment (human, UniProt O00187 298-686); test: SPR; ecotin (1,000 RU) amine-coupled on a CM5 chip; proteases injected at 20 µl/min in 145 mM NaCl, 50 mM triethanolamine-HCl, pH 7.4, 0.005% surfactant P20; global fit to a 1:1 Langmuir model, at least five concentrations; apparent KD = kd/ka; settings: both partners purified
T2 construct: also called CCP1/2-ap-SP fragment of MASP-2; catalytic domain of MASP-2; source: baculovirus-infected insect cells, purified

[4] = target: T3, Coagulation factor XIa (human plasma) (human, UniProt P03951 19-387; P03951 388-625); test: as above; settings: both partners purified
T3 construct: coagulation factor XIa heavy chain, human plasma; coagulation factor XIa light chain (catalytic domain), human plasma; also called fXIa; source: bought: Calbiochem (human plasma)

[5] = target: T1, MASP-3 serine protease (SP) domain; test: as above; settings: both partners purified

T2 sequence (O00187 298-686): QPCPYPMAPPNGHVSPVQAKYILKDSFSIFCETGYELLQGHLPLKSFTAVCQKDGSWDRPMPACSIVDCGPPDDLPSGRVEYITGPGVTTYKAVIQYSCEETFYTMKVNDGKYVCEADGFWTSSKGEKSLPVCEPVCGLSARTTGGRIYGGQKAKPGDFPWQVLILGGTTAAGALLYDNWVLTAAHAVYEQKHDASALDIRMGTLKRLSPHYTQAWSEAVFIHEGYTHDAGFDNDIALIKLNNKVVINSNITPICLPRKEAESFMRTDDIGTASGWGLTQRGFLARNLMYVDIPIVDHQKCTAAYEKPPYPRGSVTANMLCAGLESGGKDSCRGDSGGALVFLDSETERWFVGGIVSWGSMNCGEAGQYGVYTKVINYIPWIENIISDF
T3 sequence (P03951 19-387, chain 1 of 2): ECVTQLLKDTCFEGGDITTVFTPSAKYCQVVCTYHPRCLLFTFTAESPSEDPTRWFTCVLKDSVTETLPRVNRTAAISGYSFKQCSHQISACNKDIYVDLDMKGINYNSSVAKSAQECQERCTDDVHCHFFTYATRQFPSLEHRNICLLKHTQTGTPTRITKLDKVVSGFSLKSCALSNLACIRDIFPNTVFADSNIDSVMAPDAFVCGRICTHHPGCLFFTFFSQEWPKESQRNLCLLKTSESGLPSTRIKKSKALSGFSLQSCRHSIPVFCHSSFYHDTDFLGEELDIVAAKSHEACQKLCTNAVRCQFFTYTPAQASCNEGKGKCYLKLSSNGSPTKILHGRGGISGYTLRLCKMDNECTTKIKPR
T3 sequence (P03951 388-625, chain 2 of 2): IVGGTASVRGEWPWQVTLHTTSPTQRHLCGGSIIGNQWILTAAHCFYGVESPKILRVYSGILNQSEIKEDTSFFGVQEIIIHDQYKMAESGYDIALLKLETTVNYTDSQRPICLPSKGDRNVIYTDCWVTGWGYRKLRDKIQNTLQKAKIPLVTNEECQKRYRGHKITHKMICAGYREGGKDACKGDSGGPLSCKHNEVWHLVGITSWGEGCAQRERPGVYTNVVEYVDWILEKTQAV

B1: Ecotin (E. coli pan-serine protease inhibitor) (natural protein)
chain: not shown
notes: residues numbered 1 onwards in the structure (P1 residue Met84); Homodimer (molecular mass 32 kDa as printed); also called ecotin dimer; source: bought: Gentaur Molecular Products
Question: How did the “stoichiometry N” value [1] turn out when B1 was run?
Answer: 2

Question: And the “inhibition of FGR-AMC cleavage by the MASP-3 SP domain after incubation with ecotin at a 1:1 molar ratio” value [2]?
Answer: 82%

Question: What about the Kd [3] of the same binder?
Answer: 24.7 nM

Question: And the koff [3]?
Answer: 0.00228 s⁻¹

Question: What about the kon [3] of the same binder?
Answer: 104000 M⁻¹ s⁻¹

Question: And the Kd [4]?
Answer: 1.38 nM

Question: And the koff [4]?
Answer: 0.000169 s⁻¹

Question: And the kon [4]?
Answer: 123000 M⁻¹ s⁻¹

Question: What about the Kd [5] of the same binder?
Answer: 601 nM

Question: And the koff [5]?
Answer: 0.000806 s⁻¹

Question: What about the kon [5] of the same binder?
Answer: 1340 M⁻¹ s⁻¹

Reference: paper PMC3701661, “The Serine Protease Domain of MASP-3: Enzymatic Properties and Crystal Structure in Complex with Ecotin” (PLoS ONE, 2013)
